# From article PMC6039102 (Nature, 2018)
# Where “and” joins values, the source holds several entries; their conditions need not be identical. Equal values may be shown once.
# B1: KSHV smallest capsid protein (SCP) (natural protein)
# chain: MSNFKVRDPVIQERLDHDYAHHPLVARMNTLDQGNMSQAEYLVQKRHYLVFLIAHHYYEAYLRRMGGIQRRDHLQTLRDQKPRERADRVSAASAYDAGTFTVPSRPGPASGTTPGGQDSLGVSGSSITTLSSGPHSLSPASDILTTLSSTTETAAPAVADARKPPSGKKK
# B2: KSHV major capsid protein (MCP) (natural protein)
# chain: MEATLEQRPFPYLATEANLLTQIKESAADGLFKSFQLLLGKDAREGSVRFEALLGVYTNVVEFVKFLETALAAACVNTEFKDLRRMIDGKIQFKISMPTIAHGDGRRPNKQRQYIVMKACNKHHIGAEIELAAADIELLFAEKETPLDFTEYAGAIKTITSALQFGMDALERGLVDTVLAVKLRHAPPVFILKTLGDPVYSERGLKKAVKSDMVSMFKAHLIEHSFFLDKAELMTRGKQYVLTMLSDMLAAVCEDTVFKGVSTYTTASGQQVAGVLETTDSVMRRLMNLLGQVESAMSGPAAYASYVVRGANLVTAVSYGRAMRNFEQFMARIVDHPNALPSVEGDKAALADGHDEIQRTRIAASLVKIGDKFVAIESLQRMYNETQFPCPLNRRIQYTYFFPVGLHLPVPRYSTSVSVRGVESPAIQSTETWVVNKNNVPLCFGYQNALKSICHPRMHNPTQSAQALNQAFPDPDGGHGYGLRYEQTPNMNLFRTFHQYYMGKNVAFVPDVAQKALVTTEDLLHPTSHRLLRLEVHPFFDFFVHPCPGARGSYRATHRTMVGNIPQPLAPREFQESRGAQFDAVTNMTHVIDQLTIDVIQETAFDPAYPLFCYVIEAMIHGQEEKFVMNMPLIALVIQTYWVNSGKLAFVNSYHMVRFICTHMGNGSIPKEAHGHYRKILGELIALEQALLKLAGHETVGRTPITHLVSALLDPHLLPPFAYHDVFTDLMQKSSRQPIIKIGDQNYDNPQNRATFINLRGRMEDLVNNLVNIYQTRVNEDHDERHVLDVAPLDENDYNPVLEKLFYYVLMPVCSNGHMCGMGVDYQNVALTLTYNGPVFADVVNAQDDILLHLENGTLKDILQAGDIRPTVDMIRVLCTSFLTCPFVTQAARVITKRDPAQSFATHEYGKDVAQTVLVNGFGAFAVADRSREAAETMFYPVPFNKLYADPLVAATLHPLLANYVTRLPNQRNAVVFNVPSNLMAEYEEWHKSPVAAYAASCQATPGAISAMVSMHQKLSAPSFICQAKHRMHPGFAMTVVRTDEVLAEHILYCSRASTSMFVGLPSVVRREVRSDAVTFEITHEIASLHTALGYSSVIAPAHVAAITTDMGVHCQDLFMIFPGDAYQDRQLHDYIKMKAGVQTGSPGNRMDHVGYTAGVPRCENLPGLSHGQLATCEIIPTPVTSDVAYFQTPSNPRGRAACVVSCDAYSNESAERLLYDHSIPDPAYECRSTNNPWASQRGSLGDVLYNITFRQTALPGMYSPCRQFFHKEDIMRYNRGLYTLVNEYSARLAGAPATSTTDLQYVVVNGTDVFLDQPCHMLQEAYPTLAASHRVMLDEYMSNKQTHAPVHMGQYLIEEVAPMKRLLKLGNKVVY
# Key:
# Assay in all cases: cryo-EM structure
# [1] = biological target: KSHV triplex protein Tri1 (Kaposi's sarcoma-associated herpesvirus (KSHV))
# [2] = biological target: KSHV triplex protein Tri2 (Kaposi's sarcoma-associated herpesvirus (KSHV))
# [3] = biological target: B2
# [4] = biological target: the molecule itself
molecule,measurement,setting,value
KSHV triplex protein Tri2 (natural protein),stoichiometry N,[1],2
same,stoichiometry N,[2],2
B1,binding result,[3],binds
B2,stoichiometry N,[4],5 and 6
